{"source": "the nanobody polyreactivity screen of Harvey et al. (2022)", "assay": "yeast display, Sf9 membrane polyspecificity reagent, FACS + sequencing; frameworks hold sequencing errors", "in_short": "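A synthetic nanobody library was expressed on Saccharomyces cerevisiae BJ5465 by galactose induction for 36–48 hours. The library was stained for 1 hour at 4 °C with 10% biotinylated, detergent-solubilized Sf9 membrane reagent and enriched with streptavidin microbeads before FACS. Low and high (top ~1%) gates were set on anti-HA fluorescence for expression and streptavidin fluorescence for reagent binding, and each polyreactivity label reflects the gate of origin.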", "data": [{"sequence": "QVQLVESGGGLVQAGGSLRLNCAASGRIFGYNDMGWSRQAPGKERELVAAIDYSAGSTYYADSVKGRFTISRDNAKNTVNLQMNSLKPEDTAVYYCNTDSESSLLSSRGYWGQGTQVTVSS", "values": [{"measurement": "polyreactivity (PSR sort gate)", "value": "low polyreactivity"}]}, {"sequence": "QVQLVESGGGLVQAGGSLRLSCAASGSIFLNYAMGWYRQAPGKERELVAAISYRVGRTYYADSVKGRFTISRDNAKNTVYLQMNSLKPEDTAVYYCAADSRSPGHDYWGQGTQVTVSS", "values": [{"measurement": "polyreactivity (PSR sort gate)", "value": "high polyreactivity"}]}, {"sequence": "QVQLVESGGGLVQAGGSLRLSCAASGLTFRYNAMGWYRQAHGKERELVARISRNGGRTYYADSVKGRFTISRDNAKNTVYLQMNSLKPEDSAVYYCNVVYFVTTSPGYDYWGQGTKVTVSS", "values": [{"measurement": "polyreactivity (PSR sort gate)", "value": "high polyreactivity"}]}, {"sequence": "QVQLVESGGGLVQAGGSLPLSCAASGITFRYYAMGWYRQAPGKERELVAAITRGGRTNYADSVKGRFTISRDNAKNTVYLQMNSLKPEDTAVYYCATGRDSNFGNSYYYWGQGTQVTVSS", "values": [{"measurement": "polyreactivity (PSR sort gate)", "value": "high polyreactivity"}]}, {"sequence": "QVQLVDSGGGLVQAGGSLRLSCAASGRIFPRNAMGWYRQAPGKERELVATIRSSTYYADSVKGRFTISRDNAKNTVYLQMNSLKPEDTAVYYCNVRLSYSYISPSDWNFDYWGQGTQVTVSS", "values": [{"measurement": "polyreactivity (PSR sort gate)", "value": "low polyreactivity"}]}, {"sequence": "QVQLVESGGGLVQAGGSLRLSCAASGLTFIPNAMGWDRQAPGKERELVAAISGTGGSTYYADSVKGRFTISRDNAKNTVYLQMNSLKPEDTAVYYCAARRRYKSGYWGQGTQVTVSS", "values": [{"measurement": "polyreactivity (PSR sort gate)", "value": "high polyreactivity"}]}, {"sequence": "QVQLVESGGGLVQAGGSLLLSCAASGSTFGYNTMGWYRQAPGKERELVAAINYSGGRTYYADSVKGRFTISRDYAMNTVYLQMNSQKPEDTAVYYCNALSYPSRVYDAYDYWGQGTQVTVSS", "values": [{"measurement": "polyreactivity (PSR sort gate)", "value": "high polyreactivity"}]}, {"sequence": "QVQLVESGGGLVQAGGSLRLSCAASGRTFRKYAMGWSRQAPGKERELVAAINRGGTTKYADSVKGRFTISRDNAKNTVYLQMNSLKPEDTAVYYCNAAYGGVFFYAYDYWGQGTQVTVSS", "values": [{"measurement": "polyreactivity (PSR sort gate)", "value": "low polyreactivity"}]}, {"sequence": "QVQLVESGGGLVQAGGSLRLSCAASGIIFAFYAMGWYRQAPGKERELVATISKSGGRTYYADSVKGRFTISRDNAKNTVYLQMNSLKPEDTAVYYCAARIQYAFGADYYWGQGTQVTVSS", "values": [{"measurement": "polyreactivity (PSR sort gate)", "value": "low polyreactivity"}]}, {"sequence": "QVQLVESGGGLVQAGGSLRLSCAASGRIFAVNAMGLYRQAPGKERELVARIRRIGGSTYYADSVKGRFTISRDNAKNTVYLQMNSQKPEDTAVYYCAAVSRVWLNLYNYWGQGTQVTVSS", "values": [{"measurement": "polyreactivity (PSR sort gate)", "value": "high polyreactivity"}]}, {"sequence": "QVQLVESGGGLVQAGGSLRLSCAASGIIFKIYAMGWYRQAPGKERELVAAISWRGGSTYYADSVKGRFTISRDNAKNTVYLQMNSLKPEDTAVYYCAAARGYRTGYGYWGQGTQVTVSS", "values": [{"measurement": "polyreactivity (PSR sort gate)", "value": "high polyreactivity"}]}, {"sequence": "QVQLVESGGGLVQAGGSLRLSCAASGGTFRNYPMGWYRQAPGKERELVAAITTGTITNYADSVKGRFTISRDNAKNTVYLQMNSLKPEDTAVYYCNAGAFYSDPYDYWGQGTQVTVSS", "values": [{"measurement": "polyreactivity (PSR sort gate)", "value": "low polyreactivity"}]}, {"sequence": "QVQLVESGGGLVQAGGSLRLSCAASGRTFSHNTMGWYRQAPGKERELVAAITGSGASTYYADSVKGRFTISRDNAKNTVYLQMNSLKPEDTAVYYCAKVSRQSWYEYDSWGQVTQVTVSS", "values": [{"measurement": "polyreactivity (PSR sort gate)", "value": "low polyreactivity"}]}, {"sequence": "QVQLVETGGGLVQAGGSLRLRCAASGSIFGGYAMGWYRQAPGKERELVAAISSGGSTYYADSVKGRFTISRDNAKNTVYLQMNSLKPEDTAVYYCATSTYAYRRNSYYYTRPRFGYWGQGTQVTVSS", "values": [{"measurement": "polyreactivity (PSR sort gate)", "value": "high polyreactivity"}]}, {"sequence": "QVQLVESVVGLVQAGGSLRLSCAASGSIFIENTMGWYRQAPGKERELVAAISGSVGRTFYADSVKGRFTISRDNAKNTVYLQMNSLKPEDTAVYYCAAVRRTSPGWVYYWGQGTRVTVSS", "values": [{"measurement": "polyreactivity (PSR sort gate)", "value": "high polyreactivity"}]}, {"sequence": "QVQLVESGGGLVQAGGSLRLSCAASGRIFYAYAMGWYRQAPGKETELVAAITWRGGRTFYADSVKGRFTISRDNAKNTVYFQMNSLKPEDTAVYYCATRGAPYGMDYWGQGTQVTVSS", "values": [{"measurement": "polyreactivity (PSR sort gate)", "value": "high polyreactivity"}]}, {"sequence": "QVQLVESGGGLVQAGGTLLLTCAASGFIFDIYAMGWSRPAPGKERELVAAITWNSGSTHYADSVKGRFTISRDTAKNTVYLQMNRLKPEDTAVYYCAADEVTYAYYPYDYWGQGTQVTVSS", "values": [{"measurement": "polyreactivity (PSR sort gate)", "value": "low polyreactivity"}]}, {"sequence": "QVQLVESGGGLVQAGGSLRLSCAASGSIFNYNAMGWYRQAPGKERELVAAMSGSGGRTYYADSVKGRFTISRDNAKYTVYLQMNSLKPEDTAVYYCATYVRITPYEYWGQGTQVTVSS", "values": [{"measurement": "polyreactivity (PSR sort gate)", "value": "high polyreactivity"}]}, {"sequence": "QVQLVESGGGLVQAGGSLRLSCAASGFTFSLYAMGWYRQAPGKEREMVAAISRIGGRTYYADSVKGRFTISRDNAKNTVYLQMNSLKPEDTAVYYCAARQGYRSYRRYDYWGQGTQVTVSS", "values": [{"measurement": "polyreactivity (PSR sort gate)", "value": "high polyreactivity"}]}, {"sequence": "QVQLVESGGGLVQAGGSLRLSCAASGRIFHSYAMGWYRQAPGKERELVAAISSGGNTYYADSVKGRFTISRDNAKNTVYLQMNSLKREDTAVYYCARDWDFLYDGFHSDSYEYWGQGTQVTVSS", "values": [{"measurement": "polyreactivity (PSR sort gate)", "value": "low polyreactivity"}]}, {"sequence": "QVQLVESGGGLVQAGGSLRLSCAASGSTFRVNAMGWYRQAPGKERELVAAIRKSGGSTYADSVKGRFTISRDNAKNTVYLQMNSLKPEDTAVYYCNADATAWLGWDDNYWGQGSQVTVSS", "values": [{"measurement": "polyreactivity (PSR sort gate)", "value": "low polyreactivity"}]}, {"sequence": "QVQLVESGGGLVQAGGSLRFSCAASGNIFVVYTMGWDRQAPGKERELVADITSIGTSTYYADSVKGRFTISRDNAKNTVYLQMNSLKPEDTAVYYCNKDGSVWGKYTEYYWGQGTQVTVAS", "values": [{"measurement": "polyreactivity (PSR sort gate)", "value": "low polyreactivity"}]}, {"sequence": "QVQLVESGGGLVQAGGSLRLSCAASGSIFGRNTMGWYRQAPGKERELVAAIDSSGGSTYYADSVKGRFTISRDNAKNTVYLQMNSLKPEDTAVYYCAAESRYATKSGYGLVLYYYWGQGTQVTVSS", "values": [{"measurement": "polyreactivity (PSR sort gate)", "value": "high polyreactivity"}]}, {"sequence": "QVQHVESGGGLVQAGGSLRLSCAASGIIFYSYTMGWYRQAPGKDRELVAAISRNGGGTYYADSVKGRFTSSRDIAKNTGYLQMNSLKPEHTAVYYCAAGWRFGRYSGDYWGQGTQVTVSS", "values": [{"measurement": "polyreactivity (PSR sort gate)", "value": "high polyreactivity"}]}, {"sequence": "QVQLVESGGGLVQAGGSLRLSCAASGRIFYYYDMGWYRQAPGNERELVAGINDDSSTYYADSVKGRFTISRDNAKNTVYLQMNSLKPEDTAVYYCNAGPSWYPCWYYYWGQGTQVTVSS", "values": [{"measurement": "polyreactivity (PSR sort gate)", "value": "low polyreactivity"}]}, {"sequence": "QVQLVESGGGLVQAGGSLRLSCAASGFTFRAYTMGWYRQAPGKERELVAAITYSGGPTYYADSVKGRFTISRDNAKNTVYLQMNSLKPEDTAVYYCAKRGWALSEYYYWGQGTQVTVSS", "values": [{"measurement": "polyreactivity (PSR sort gate)", "value": "high polyreactivity"}]}, {"sequence": "QVQLVESGGGLVQAGGSLRLSCAASGSIFTRYAMGWYRQAPGKERELVAAISRSDGGTNYADSVKGRFTISRDNAKNTVYLQMNSLKPEDTAVYYCAKDWYYYYPYDYWGQGTQVTVSS", "values": [{"measurement": "polyreactivity (PSR sort gate)", "value": "low polyreactivity"}]}, {"sequence": "QVQLVESGGGLVQAGGSLRLSCAASGYTFAGNAMGWYRQAPGKERELVAVITYSGGSTYYADSVKGRFTISRDNAKNTVYSQMNSLKPEDTAVYYCNAVRDRYASDYWGQGTQVTVSS", "values": [{"measurement": "polyreactivity (PSR sort gate)", "value": "low polyreactivity"}]}, {"sequence": "QVQLVESGGGLVQAGGSLRLSCAASGRIFWYYGMGWYRQAPGKERELVAAITSGGRTYYADSVKGRFTISRDNAKNTVYLQMNSLKPEDTAVYYCAKGYVRYPSKGYTFDYWGQGTQVTVSS", "values": [{"measurement": "polyreactivity (PSR sort gate)", "value": "high polyreactivity"}]}, {"sequence": "QVQLVESGGGLVQAGGSLRLSCAASGCTFPLYLMGWYRQAPGKERELVAAIDWSGGSTYYADSVKGRFTISRDNAKNTVYLQMNSLKPEDTAVYYCAARYTSLRNYGYDYWGQGTQVTVSS", "values": [{"measurement": "polyreactivity (PSR sort gate)", "value": "low polyreactivity"}]}, {"sequence": "QVQLVESGGGLVQAGGSLRLSCAASGSTLGSNAMGWYRQAPGKERELVAAITWSGGTTYYADSVKGRFTISRDNAKNTVYLQMNSMKPEDSAVYYCNAERGSGVWWKIWGSDPDDYWGQGTQVTVSS", "values": [{"measurement": "polyreactivity (PSR sort gate)", "value": "low polyreactivity"}]}, {"sequence": "QVQLQESGDGLVQAVGSLRLSCAASGYSSGYYYMGWYRQAPGKERELVAGIDAFGISTNYADCVKGRFTISRDNAKNTVYLQMTSLKPEDTAVYYCAARPDGDRLFSYWGQGTQVTVSI", "values": [{"measurement": "polyreactivity (PSR sort gate)", "value": "low polyreactivity"}]}]}
